The data set can be described thus: label from the status in PepcDB records.
Regarding “MNLSKFPVYVQAAILALVLALVGYLVAQALQFSLKAEVIFAVGLAIGGFVVPLFLNRAPAGVAELASSQETCTLYVGNLPYRANEIAVRELFAEQGQVISVRLMKDKATGKRRGFGFVEMPAADAAKAIAALNDKEYQQRTLKVREANDKRDKDEREGSEVDA”, the protein production result is on record as “failed”.

Take “MAAEIHSRPQSSRPVLLSKIEGHQDAVTAALLIPKEDGVITASQDNGAVMEFHVSEDFNKMNFIKTYPAHQNRVSAIIFSLATEWVISTGHDKCVSWMCTRSGNMLGRHFFTSWASCLQYDFDTQYAFVGDYSGQITLLKLEQNTCSVITTLKGHEGSVACLWWDPIQRLLFSGASDNSIIMWDIGGRKGRTLLLQGHHDKVQSLCYLQLTRQLVSCSSDGGIAVWNMDVSREEAPQWLESDSCQKCEQPFFWNIKQMWDTKTLGLRQHHCRKCGQAVCGKCSSKRSSYPVMGFEFQVRVCDSCYDSIKDEDRTSLATFHEGKHNISHMSMDIARGLMVTCGTDRIVKIWDMTPVVGCSLATGFSPH”: the protein production result is recorded as “failed”.

In the case of “MSNVTAEQKKEVKGRGFLPSRDGEHFAARIITVNGVINASQAKKIAEAAEKFGNGQLAFTTRLTVELPGVKFEDIEALSEFIASENLITGGTGSRVRPVVACKGTVCVHGLADTQALAAEIHEEFYKNWYDVKLPHKFKIGVGGCPNNCIKPDLNDLGIVGQRVPDYDSELCVGCKKCAVVEVCPVKAAKLTDKGKLEIDSNLCNNCGKCIESCNFDSIEEKESGYKVYIGGKWGKSVRPGTQIDRLFSKEELMTLIEKAILLFREQGNTGERFGITIDRIGADKFIEMLLSDEVLERKEEILEALLHLTGGAVCLEHHHHHH”, the protein production entry was “failed”.

As for “SLSTVNIKSTGVTSTELAEIGEHQSEMPGVKVGTSWTRSYPNGTDLSSVLGTVTTEKQGLPSDSIKTLLAEGYSRDDSVGQSQLEKQYENVLRGTKSQTEVKTQDGVIQKEIKKYGGQKGDNVQLTIN”, the protein production result is “failed”.

Regarding “MNNQSVDVDLITRFDNEAKLHALDSVYAIAEFDLAGKLIEANPLFCKMLGYKKEDIIQKSHTLFLPEAQRQKHDHFWHDVIKGNINAGEFQRKTQKGDIIWLHAAYTPIIDHSGRRIGVIKLALDITQEKRLMSEHRAQLDAIENAQGVIEFDKDGYITHVNKHYLILTGYEAKEILGLHHKSLCDPIYTEQADYQTFWETLHRGHPISGRFHRLGKGNHSFWIQATYSPVMDSDGNVRKIIKYAHNITQNVETEKKAHQQGIILDILLSVHDSFLLDHNLPSACDKVFERLLDVTNSSFGFIATLQEDEDGQSLYLPAISNLAWDEETLTWYRHQRRTHGGLRLRKLDNLFGHVVTHNTVVCTNSLLRQKAGRDLPPIHPALHSLLGIPITHNGKTVGMIALANRREGYDQTMIELLAPLVKTLGIIIHARLLEDERTQIEASLRFNAGHDFLTGLPNRSSFFEQASAFFLLRQQNQHADKSCLAIIDIDLFKNINDQFGHLAGDAVLKELAMLMRMSLRQEDLVARIGGEEFIILLKDVPYQTAVMAIERIRKAIEQHTLEYDRQNLNFTISAGIAAYRSDLASVEDWIQLADENLYAAKRQGRNCVK”, the protein production entry is “failed”.

Regarding “MRHYETMFILKPTLVEEEIKSKIEFYKEVITKHHGVIETSLDMGMRNLAYEIKKHKRGYYYVAYFKAEPSMIVELERLYRINEDVLRFIVIKYESKKEVEAWHALVDRANKKPSHAKEKHEKTEHTHSHHTEEAESVGSHSE”, the protein production result is “failed”.

Take “ENPRNVGSLDKTSKNVGTGLVGAPACGDVMKLQIQVDEKGKIVDARFKTFGCGSAIASSSLATEWVKGKTVEEALTIKNTDIAKELCLPPVKLHCSMLAEDAIKAALADYKLKQESK”: the protein production result is reported as “not failed”.

For the sequence “MERAFMLNGLLVNLVSGLIVMFISAILYYRKPERKWLLIIIVIGMMSVVTAGIRMLVA”, the protein production entry was “failed”.

Consider “MDLEEQKKAVIEKLIREGYIKSKRVIDALLKVPREEFLPEHLKEYAYVDTPLEIGYGQTISAIHMVGMMCELLDLKPGMKVLEIGTGCGYHAAVTAEIVGEDGLVVSIERIPELAEKAERTLRKLGYDNVIVIVGDGTLGYEPLAPYDRIYTTAAGPKIPEPLIRQLKDGGKLLMPVGRYLQRLVLAEKRGDEIIIKDCGPVAFVPLVGKEGFQG”, for which the protein production result is “not failed”.

As to “MQSILKPITNLFTMIFQAIHGFVASLDIFGVGAGYVITIFLLTLLVRLILLPLNIKQTRSQQKMQEIQPEIAKLQKKYKNNPEKAQQEMMKLYKENNVNPMSGCLPLLIQMPILFALYYVFTGLTELQGVSFLWLGDLWAPDRTFILPILSAATTYLSSLLMTKFTQSQAGGAPGGMNMNTMNIVMAGMMGVMSIQFPSMLVLYWVIGNLIQMVQTYFIVVLPSRKRAKEKEQYKDIK”, the protein production result is recorded as “failed”.

Take “MKHLVICIALLTVGACCFAQQKKVASHKAASGNPVFQGWYADPEGIIYDDTYWIFPTWSDLYENQTFFDCFSSKDLVNWTKHASVLDTTAVKWAKKAMWAPSVIRKNGKYYIFFGANDVHEGEIGGIGVAVSDRPEGPYKDLLGKPLINEIVNGAQPIDQFVYNDNGHYYMYYGGWGHCNVVQLNDDFTGLVPFEDGTVYKEVTPENYVEGPFMFKKDGKYYFMWSEGGWGGPDYSVAYAISDSPFGPFKRVAKILQQDPSVATSAGHHSLLHAPGTDDYYIVYHRRPLNDNARDHRVTCIDKMTFDKDGFINPVKMTFEGVPAQKIKKSKKK”: the protein production entry is reported as “failed”.

For the sequence “EIAQVTSAYVASGSEQLSLAPGQLILILKKNTSGWWQGELQARGKKRQKGWFPASHVKLLGPSSERA”, the protein production entry is given as “not failed”.

For “MSLPAFVEALLTPAAYPHAVTTPIQLLQTHISYVFLTGDYAYKVKKPADFGFLNFTTLERRLFYCQEELRLNRRLAPDLYLAVVPIVAVGDRYCVAHPQDLPAGAEVIEYAVQMRQFDQSQLFSHLFAANQVTPHLIESLGKELAHFHRCAATSPRISEFGSPRAIAQVINNCHALAAQFVGRCQSPEQYAAIQAFTDDFLSRRQEWFVRRQAGGKIRECHGDLHLNNICLYNGKVQIFDCIEFNEEFRNIDGIYDAAFLLMDLEFRRRGDLANLFLNTYLEWSGDYEGAVLLPLYLCVRAYIRGNVNALALNDPAISGAEKAQIQATAAAYYGAAYRYTQPRQAKLYMMCGLSGAGKSTRGRRLAQAEQAIQIRSDAVRKHLAHLPLDRRSTDFPEVDLYSDAMTEKTYDQLLAYAELLLPQGQTVILDAKYDRVALRQPVIALAKKLHVPLEIHFCSAPPEELHRRLSARQGDIAEATPDLIATQMASFEPFLPEEEPYVRHVCD”, the protein production entry was “failed”.

For “MVLAGGVGKRLLPLTRERPKPYLPLAGKPLYMYAVEQVAMVRSLLDRAVMVTPPGHPTPPGSLPSWLDTVEQQGEGVEAGLATALKRLGGGEEVVVSFVGYLARPNTLVRHVLDFYSVTRYKLVLALAPVTRGSESFGFVDADPSTGRVLGFSGSREEWMAGRGRVFAGVLAGDPEALEVLAGEGFVEGINTLARRGLVGSVVWPGEWLEVGYPCDLLEAPRLVVEAWAAVISAKARVARSSVIQGGVVIEEDAEVGEGAVVEGPAYLGRGAVVGRNSVVGPGVVLEEGAVVGDLVSIERSVMLERAEASGPSRLEGVVIGDGAYIAPLAAATNREGCTVVAPKTRLGPRATLEPGKTYTLEHHHHHH”, the protein production entry is “failed”.

With “MTTFSHSSTTPSVSVTTASGNNQSQLVATPVPDEQRISFWPQHFGLIPQWVTLEPRVFGWMDRLCEDYCGGIWNLYTLNNGGAFIAPEPDEDDGETWILFNAMNGNRAEMSPEAAGIAACLMTYSHHACRTECYAMTVHYYRLRDYALQHPECSAIMRIID”, the protein production entry is listed as “failed”.

Turning to “MTESIVCHKCQEAITKRMITALGKTWHPEHFLCHHCDEQILDATFNVQSGEPVCNKCFVERYTYTCAGCKKPILEKTICAMGESWHEDCFCCGGACKKPLANQTFYERDGKPYCKKDYEDLFAARCAKCEKPITDSAVLAMNVKWHRDCFRCNKCENPITSQTFTIDGDKPVCPACNC”, the protein production entry was “failed”.

For the sequence “MADNINESEIIERLNSAPSVRGFFIATVDVFNESIDGLIQRIFRKDNFAVQSVVGPLLQDSGPLGDLSVRLKLLFGLGVLPDDIYHDIEDIIKLKNHLNSDASDYEFTDPNILEPIKKLHLVKKMGMVQLEVNEPDDDIDLEFYQLQLQRQQQIIKSGLSLAIVEICNELGK”, the protein production result is recorded as “not failed”.

Take “MSGQADTATTAEARTPAHAAHHLVEGVARVLTKPRFRGWIHVYSAGTAVLAGASLVAVSWAVGSAKAGLTTLAYTAATITMFTVSATYHRVNWKSATARNWMKRADHSMIFVFIAGSYTPFALLALPAHDGRVVLSIVWGGAIAGILLKMCWPAAPRSVGVPLYLLLGWVAVWYTATILHNAGVTALVLLFVGGALYSIGGILYAVRWPDPWPTTFGYHEFFHACTAVAAICHYIAMWFVVF”: the protein production entry is “failed”.

Turning to “MKKLLLSLTLTVLLGLLGRPAIAANYEIKLVDEGVFAAIALPEGKAASNALIIITPHQVILAGAHFVPEGIKELIADIAEITPLPLRSVILTHHHKGFNYVDFDFPANVEIITSWQTWQALKAETRPLRNPVTFFEKGLTLLRSNTTIVLSSADFGHTEGDVFLFLPNEGILFASDLFYNDVVGYMGEGHMRDWVITLETLEAVGAQYVVPGLGQVTDRSGLRRFRLFFKDFLTEVLRHMEAGKTLAETKKLFRLPAHEGMPGYKAFLDVNLDRAYQDLRDQ”, the protein production entry is “failed”.

For “MQVKTEEKSVNNKKLIPFWVIERALEGDIQAINKILKHYEGYIAKLSVRKMYDEYGCVHYCVDETLRRRLETKLIKTIIGFKIVRLEHHHHHH”, the protein production result was “not failed”.

Take “MPDYGHDLLFGAVLTPDAQNPRAVLESARLADRSGLDLVSVPDHPYRPDFLDAWTLLSVIAAHTERVRVFPNVANLPLRPPAGLARAAAALDVLSGGRVELGLGAGGYWDAIAGEGQPRRTPGEAVEALAEAIDVIRALWASGGAGATVDGTHYRLDGARPGPPAAHPLGIWVGALGPRMLRLIGRTADGWLPSATRVPPAELAVGQRIVDEAAIAAGRDPRAVRRLYNLP”: the protein production entry was “failed”.

“AQRRNEIQVPDLDGYTTLKCDFHMHSVFSDGLVWPTVRVDEAYRDGLDAISLTEHIEYRPHKQDVVSDHNRSFDLCREQAEKLGILLIKGSEITRAMAPGHFNAIFLSDSNPLEQKDYKDAFREAKKQGAFMFWNHPGWDSQQPDTTKWWPEHTALYQEGCMHGIEVANGHLYMPEAIQWCLDKNLTMIGTSDIHQPIQTDYDFEKGEHRTMTFVFAKERSLQGIREALDNRRTAAYFHELLIGREDLLRPFFEKCVKIEEVSRNEQGVTLSITNVTDLVLKLKKTAHDTLLVYFRDMTLKPHTRYTVRIGFKQGIKGGDVNFEVTNFIVAPDKGLKYTISL”: the protein production entry is “not failed”.

Regarding “MLTAAVLLPLVGALVAWIVPDNRLRPLVLPAVAVPHFLLTLALLAWTPPPSPQGWIFLDPLGKIVLLCISTLFLICAVYAVGYLAYRRDRSNRVLCMGLLACLSAMTLVTASQHLGLLWVAVETTTVTMAPLIYFNRNARSIEATWKYLLICSVGIALALLGLFFLAYATLVAHRDATLLLGPILASARELNPGWLHASFIFMLVGFGSKMGIAPLHSWKPDAYGEAPGLVGALLAGGLVNCAFLAILRVYQISLASGGEYLFFQKALLTMGLISMGLAAVFMARQADFKRMLAYSSVEHVGILAVALGLGKGALFGALFHLLNNGLTKGVLFLSSGNIHRSFNSKSTEVVRGALARLPWSAGLFLAGFIAITGSPPFSPFVSEFSIVSSAFVEGRYLVGGLFLFFLAVIFIGMALTVLPLVMGVPPADAERTDYRDRLLTVGPPLALLGLILMLGVWLPEPLLRLLGEGAALLEAKP”, the protein production entry is on record as “failed”.

“MAKVCYFTGRKTVSGNNRSHAMNKTKRVVKPNLQKVTVLIDGKPKKVWASARALKSGKVERVLEHHHHHH”: the protein production result was “failed”.

For the sequence “MPTTKQLKDTELPLNFFEHSSLETIELFIQHLTEAMILVNANGFIRSCNQRSAELLDCPQVSLKGQDWRNFLTEHHQARYDNLLSHDVQLGTNCGQPVQHPAQETTLICASGKAKDVELSISYIPGHEPMFVMVMHDLTHHKAELEHHHHHH”, the protein production result is “not failed”.
